Assay results taken from paper PMC12775124, “CUL4A-DDB1-DCAF10 is an N-recognin for N-terminally acetylated Src kinases” (Nature Communications, 2026).
Where a chain is given by its changes, count along the chain named. Names and notes keep the numbering of the source. “Also recorded” adds a separate entry of the source.

B1: Lyn^G2A-GFP: Nt-mutant (G2A) Lyn-GFP (protein, UniProt P07948 2-512, looked up, variant G2A)
Tyrosine-protein kinase Lyn: ACIKSKGKDSLSDDGVDLKTQPVRNTERTIYVRDPTSNKQQRPVPESQLLPGQRFQTKDPEEQGDIVVALYPYDGIHPDDLSFKKGEKMKVLEEHGEWWKAKSLLTKKEGFIPSNYVAKLNTLETEEWFFKDITRKDAERQLLAPGNSAGAFLIRESETLKGSFSLSVRDFDPVHGDVIKHYKIRSLDNGGYYISPRITFPCISDMIKHYQKQADGLCRRLEKACISPKPQKPWDKDAWEIPRESIKLVKRLGAGQFGEVWMGYYNNSTKVAVKTLKPGTMSVQAFLEEANLMKTLQHDKLVRLYAVVTREEPIYIITEYMAKGSLLDFLKSDEGGKVLLPKLIDFSAQIAEGMAYIERKNYIHRDLRAANVLVSESLMCKIADFGLARVIEDNEYTAREGAKFPIKWTAPEAINFGCFTIKSDVWSFGILLYEIVTYGKIPYPGRTNADVMTALSQGYRMPRVENCPDELYDIMKMCWKEKAEERPTFDYLQSVLDDFYTATEGQYQQQP
modifications: GFP fusion
B2: Lyn^G2P-GFP: Nt-mutant (G2P) Lyn-GFP (protein, UniProt P07948 2-512, looked up, variant G2P)
Tyrosine-protein kinase Lyn: B1 Tyrosine-protein kinase Lyn with A1P
modifications: C-terminal GFP fusion

Experiments:
[1] = system: DLD-1 Lyn KO Flp-In T-REx cells; assay: Direct ubiquitin blot of Lyn-GFP immunoprecipitates; type: cell-based, human; settings: anti-GFP IP, anti-Ub blot, n = 3
Description: Fig. 6 N-terminal glycine mutation abolishes DCAF10-dependent stability and ubiquitination. a DLD-1 Flp-In T-REx cells and Lyn KO cells expressing Lyn^WT-GFP, Lyn^G2A-GFP, or Lyn^G2P-GFP were induced for 24 h with 100 ng/mL doxycycline. Cells were treated with NMT1/2 siRNA, DCAF10 siRNA, or both (or left untreated) for 72 h. Representative WBs are shown. Filled circles represent siRNA treatment, empty circles untreated. b WB quantifications of Lyn levels normalized to vinculin. Purple: untreated with NMT1/2 siRNA; blue: treated with NMT1/2 siRNA. Mean ± s.d. with individual data points are shown (n = 3 independent biological replicates). c Schematic of ubiquitination experiments. Created in BioRender. […] Lysates have been treated with NMT1/2 RNAi for 72 h. i Quantification of in vitro ubiquitination assays. Mean ± s.d. with individual data points are shown (n = 3 independent ubiquitination assays). Volcano plots of Lyn-GFP^WT binding partners: j NMT1/2 siRNA ± doxycycline (Dox); k Control ± doxycycline; l NMT1/2 siRNA vs. control both with doxycycline. The −log10 adjusted p-value (two-sided Student’s t test with permutation-based multiple-testing correction; y-axis) is plotted against the log2 fold change (x-axis). […]
We next assessed the role of the Lyn Nt-residue for ubiquitination by performing two complementary experimental set-ups (Fig. 6c). […]

[2] = system: DLD-1 Flp-In T-REx and Lyn KO cells; assay: Level of Lyn / Lyn-GFP variants after NMT1/2 and DCAF10 siRNA, Western blot; type: cell-based, human; settings: DLD-1, 72 h siRNA
Text: To further investigate the role of the Nt-amino acid and its modification in DCAF10 recognition and DCAF10-dependent ubiquitination, we used the CRISPR/Cas9 technique to knock out Lyn in DLD-1 cell lines with T-REx Flp-In background (DLD-1 Lyn KO Flp-In T-REx) (Supplementary Fig. 7a–c). We then integrated Lyn^WT-GFP and two Nt-mutants (Lyn^G2A-GFP and Lyn^G2P-GFP) under a doxycycline-inducible promoter into the Flp-In cassette. Alanine (G2A) is expected to be efficiently acetylated by NatA, generating an Nt-acetylated Lyn mutant. Conversely, the proline (G2P) mutant, is expected not to be acetylated and may retain a free N-terminus[3],[36],[37]. Doxycycline-induced expression of Lyn^WT-GFP, Lyn^G2A-GFP, and Lyn^G2P-GFP was confirmed by Western blot, MS, and fluorescence microscopy (Supplementary Figs. 7d, e; 8a and Supplementary Data 6). […]
Fig. 6 N-terminal glycine mutation abolishes DCAF10-dependent stability and ubiquitination. a DLD-1 Flp-In T-REx cells and Lyn KO cells expressing Lyn^WT-GFP, Lyn^G2A-GFP, or Lyn^G2P-GFP were induced for 24 h with 100 ng/mL doxycycline. […] Filled circles represent siRNA treatment, empty circles untreated. b WB quantifications of Lyn levels normalized to vinculin. […] Lysates have been treated with NMT1/2 RNAi for 72 h. i Quantification of in vitro ubiquitination assays. […]

Molecule	Ubiquitination in cells (in words) [1]	Dependency on NMT1/2 and DCAF10 (in words) [2]
B1	no detectable ubiquitination	did not show such dependency; also recorded: slight increase after DCAF10 depletion, independently of NMT1/2
B2	no detectable ubiquitination	did not show such dependency
